Experimental data as given in patent US11306156.
Several values for one entry are separate records, joined by “and”; a condition that tells them apart may be missing. Equal entries are not always repeated.

Legend:
[1] = target: tissue factor (TF) antigen (human (from the antibody's name 'anti-human tissue factor'; not stated for the antigen lot in the assay)) (UniProt P13726); test: SPR (ProteOn XPR36): Fab captured via His tag on anti-penta His surface, TF injected, 1:1 fit; batch C (+)
[2] = target: tissue factor (TF) antigen (human (from the antibody's name 'anti-human tissue factor'; not stated for the antigen lot in the assay)) (UniProt P13726); test: SPR (ProteOn XPR36), Fab captured on anti-penta His, TF analyte; against wild-type D3H44 Fab; batch C (+)
[3] = target: tissue factor (TF) antigen (UniProt P13726); test: SPR (ProteOn), Fab captured via anti-penta-His, TF injected, 1:1 fit
[4] = target: tissue factor (TF) antigen (UniProt P13726); test: SPR (ProteOn), Fab captured via anti-penta-His, TF injected, 1:1 fit; reference wild-type D3H44 Fab
[5] = target: D3H44 light chain Q124E_V133G_S176D_T178D_T180E; test: LCCA (co-expression, SPR tag read-out), L1:L2 DNA 1:3 normalised to 1:1; competing light chain m8
[6] = target: D3H44 light chain Q124E_V133G_S176D_T178D_T180E; test: LCCA (co-expression, SPR tag read-out), L1:L2 DNA 1:3 normalised to 1:1; competing light chain m7
[7] = target: D3H44 Fab heavy chain S186K, ABD2-His6 tagged; test: LCCA, SPR of light chain tags; L1:L2 DNA 1:3 normalized to 1:1; competing light chain m16
[8] = target: D3H44 Fab heavy chain L143E_K145T_Q179E, ABD2-His6 tagged; test: as above
[9] = target: D3H44 Fab heavy chain S186K, ABD2-His6 tagged; test: LCCA, SPR of light chain tags; L1:L2 DNA 1:9 normalized to 1:1; competing light chain m16
[10] = target: D3H44 Fab heavy chain L143E_K145T_Q179E, ABD2-His6 tagged; test: as above
[11] = target: D3H44 light chain Q124E_V133G_S176D_T178E_T180E; test: LCCA (co-expression, SPR tag read-out), L1:L2 DNA 1:3 normalised to 1:1; competing light chain m8
[12] = target: D3H44 light chain Q124E_V133G_S176D_T178E_T180E; test: LCCA (co-expression, SPR tag read-out), L1:L2 DNA 1:3 normalised to 1:1; competing light chain m7
[13] = target: tissue factor (TF) antigen (UniProt P13726); test: SPR; log change of median KD against wild-type D3H44 Fab; batch C (+)
[14] = target: tissue factor (TF) antigen (UniProt P13726); test: SPR, Fab captured by anti-penta-His, TF injected, 1:1 fit; batch C (+)
[15] = target: tissue factor (TF) antigen (UniProt P13726); test: SPR, His-captured Fab, TF as analyte, 1:1 fit; batch C (+)
[16] = target: tissue factor (TF) antigen (UniProt P13726); test: SPR, His-captured Fab, TF as analyte; against wild-type D3H44 Fab; batch C (+)
[17] = target: tissue factor (TF) antigen (UniProt P13726); test: SPR (ProteOn XPR36), Fab captured on anti-penta-His surface, TF injected as analyte, 1:1 fit; batch C (marked +); reference wild-type D3H44 Fab
[18] = target: tissue factor (TF) antigen (UniProt P13726); test: SPR (ProteOn XPR36), Fab captured on anti-penta-His surface, TF injected as analyte, 1:1 fit; batch C (marked +)
[19] = target: D3H44 Fab heavy chain Q179R, ABD2-His6 tagged; test: LCCA, SPR of light chain tags; L1:L2 DNA 1:3 normalized to 1:1; competing light chain m16
[20] = target: D3H44 Fab heavy chain Q179R, ABD2-His6 tagged; test: LCCA, SPR of light chain tags; L1:L2 DNA 1:9 normalized to 1:1; competing light chain m16
[21] = target: D3H44 light chain V133G_S176D_T178D_T180E; test: LCCA (co-expression, SPR tag read-out), L1:L2 DNA 1:3 normalised to 1:1; competing light chain m7
[22] = target: D3H44 light chain Q124R_T178R with N-terminal HA or FLAG tag; test: LCCA (SPR tag readout), L1:L2 DNA 1:9, normalized to 1:1; competing light chain m10
[23] = target: D3H44 light chain Q124R_T178R with N-terminal HA or FLAG tag; test: LCCA (SPR tag readout), L1:L2 DNA 1:9, normalized to 1:1; competing light chain m11
[24] = target: D3H44 light chain Q124E_T180E with N-terminal HA or FLAG tag; test: LCCA (SPR tag readout), L1:L2 DNA 1:3, normalized to 1:1; competing light chain m19
[25] = target: D3H44 light chain Q124R_T178R with N-terminal HA or FLAG tag; test: LCCA (SPR tag readout), L1:L2 DNA 1:3, normalized to 1:1; competing light chain m10
[26] = target: D3H44 light chain Q124R_Q160K_T178R with N-terminal HA or FLAG tag; test: LCCA (SPR tag readout), L1:L2 DNA 1:3, normalized to 1:1; competing light chain m13
[27] = target: D3H44 light chain Q124K_T178R with N-terminal HA or FLAG tag; test: as above
[28] = target: D3H44 light chain Q124R_T178R with N-terminal HA or FLAG tag; test: as above
[29] = target: D3H44 light chain T178R with N-terminal HA or FLAG tag; test: as above
[30] = target: D3H44 light chain Q124E_T180E with N-terminal HA or FLAG tag; test: LCCA (SPR tag readout), L1:L2 DNA 1:3, normalized to 1:1; competing light chain m14
[31] = target: D3H44 light chain Q124E_T178E with N-terminal HA or FLAG tag; test: LCCA (SPR tag readout), L1:L2 DNA 1:3, normalized to 1:1; competing light chain m9
[32] = target: D3H44 light chain Q124E_T180E with N-terminal HA or FLAG tag; test: as above
[33] = target: D3H44 light chain Q124E_T178E_T180E with N-terminal HA or FLAG tag; test: as above
[34] = target: D3H44 light chain Q124E_T180E with N-terminal HA or FLAG tag; test: LCCA (SPR tag readout), L1:L2 DNA 1:3, normalized to 1:1; competing light chain m12
[35] = target: D3H44 light chain Q124R_T178R with N-terminal HA or FLAG tag; test: LCCA (SPR tag readout), L1:L2 DNA 1:3, normalized to 1:1; competing light chain m11
[36] = target: D3H44 light chain Q124E_T178E with N-terminal HA or FLAG tag; test: LCCA (SPR tag readout), L1:L2 DNA 1:9, normalized to 1:1; competing light chain m9
[37] = target: D3H44 light chain Q124E_T178E_T180E with N-terminal HA or FLAG tag; test: as above

Substance: D3H44 Fab heterodimer, H1 Q39E_L143E_K145T_H172R / L1 Q38R_Q124R_Q160K_T178R (H1L1 Fab of LCCA set 9818)
- Kd [1]: 0.18 nM
- Change in median values of KD of h1l1 Fab heterodimer compared to wild type (-(log(KD design)-log(KD wt))) [2]: -0.07

Substance: D3H44 Fab heterodimer (H1L1) of LCCA Sets # 9419, 9420, 9423, 9425, 9426: H1 L124R_Q179K, L1 V133G_S176D_T178E_T180E
- Kd [3]: 0.23 nM
- change in median KD compared to wild type, -(log(KD design)-log(KD wt)) [4]: -0.16

Substance: D3H44 Fab heavy chain L124R_S186R
- H2L2:H2L1 normalized median ratio [5]: 95 parts of 100
- H2L2:H2L1 normalized median ratio [6]: 92 parts of 100

Substance: D3H44 light chain Q124E_Q160E_T180E, HA or FLAG tagged
- H2L2:H2L1 normalized median ratio [7]: 94%
- H1L1:H1L2 normalized median ratio [8]: 9%
- H2L2:H2L1 normalized median ratio [9]: 94%
- H1L1:H1L2 normalized median ratio [10]: 22%

Substance: D3H44 Fab heavy chain L124R_D146N_Q179K
- H2L2:H2L1 normalized median ratio [11]: 89 parts of 100
- H2L2:H2L1 normalized median ratio [12]: 90 parts of 100

Substance: D3H44 Fab heterodimer (H1L1) of LCCA Set # 9397: H1 L124R_Q179K, L1 V133G_Q160E_S176D_T180E
- Kd [3]: 0.19 nM
- change in median KD compared to wild type, -(log(KD design)-log(KD wt)) [4]: -0.08

Substance: H1L1 Fab heterodimer of LCCA sets 9812 and 9811 (D3H44 Fab, H1 Q179R, L1 Q124E_T178E_T180E)
- Change in median values of KD of h1l1 Fab heterodimer compared to wild type (-(log(KD design)-log(KD wt))) [13]: -0.01 log units
- Kd [14]: 0.16 nM

Substance: D3H44 Fab heterodimer H1L1 of LCCA Set # 9813 (H1 Q39E_K145T_H172R_Q179E; L1 Q38R_S131K)
- Kd [15]: 0.18 nM
- Change in median values of KD compared to wild type (-(log(KD design)-log(KD wt))) [16]: -0.05 log

Substance: H1L1 Fab heterodimer of LCCA sets 9858, 9853, 9855, 9862, 9863 and 9860 (D3H44 Fab, H1 S186K, L1 Q124E_T180E)
- Change in median values of KD of h1l1 Fab heterodimer compared to wild type (-(log(KD design)-log(KD wt))) [13]: 0.46 log units
- Kd [14]: 0.06 nM

Substance: D3H44 Fab heterodimer, H1 Q39E_K145T_Q179E / L1 Q38R_S131K (H1L1 Fab of LCCA set 9814)
- Kd [1]: 0.16 nM
- Change in median values of KD of h1l1 Fab heterodimer compared to wild type (-(log(KD design)-log(KD wt))) [2]: -0.01

Substance: D3H44 H1L1 Fab heterodimer, H1 Q39E_L143E_K145T_Q179E, L1 Q38R_Q124R_Q160K_T178R
- Change in median KD of h1l1 Fab heterodimer compared to wild type (-(log(KD design)-log(KD wt))) (log(KD) difference) [17]: -0.1
- Kd [18]: 0.2 nM

Substance: D3H44 Fab heterodimer H1L1 of LCCA Set # 9848 and 9847 (H1 S186K; L1 Q124E_S176L_T180E)
- Kd [15]: 0.15 nM
- Change in median values of KD compared to wild type (-(log(KD design)-log(KD wt))) [16]: 0.03 log

Substance: D3H44 light chain Q124E_T178E_T180E, HA or FLAG tagged
- H2L2:H2L1 normalized median ratio [7]: 95%
- H1L1:H1L2 normalized median ratio [8]: 8%
- H2L2:H2L1 normalized median ratio [19]: 94%
- H2L2:H2L1 normalized median ratio [9]: 89%
- H1L1:H1L2 normalized median ratio [10]: 8%
- H2L2:H2L1 normalized median ratio [20]: 90%

Substance: D3H44 Fab heterodimer (H1L1) of LCCA Sets # 9120, 9121: H1 L124E_H172T, L1 V133G_N137K_S174R_S176R
- Kd [3]: 0.13 nM
- change in median KD compared to wild type, -(log(KD design)-log(KD wt)) [4]: 0.03 and 0.08

Substance: D3H44 H1L1 Fab heterodimer, H1 Q39R_D146G_H172R_Q179K, L1 Q38E_Q124E_Q160E_T180E
- Change in median KD of h1l1 Fab heterodimer compared to wild type (-(log(KD design)-log(KD wt))) (log(KD) difference) [17]: 0.38
- Kd [18]: 0.07 nM

Substance: D3H44 H1L1 Fab heterodimer, H1 Q39R_H172R_Q179K, L1 Q38E_Q124E_Q160E_T180E
- Change in median KD of h1l1 Fab heterodimer compared to wild type (-(log(KD design)-log(KD wt))) (log(KD) difference) [17]: -0.18
- Kd [18]: 0.24 nM

Substance: H1L1 Fab heterodimer of LCCA sets 9898, 9893, 9891 and 9896 (D3H44 Fab, H1 S186R, L1 Q124E_T180E)
- Change in median values of KD of h1l1 Fab heterodimer compared to wild type (-(log(KD design)-log(KD wt))) [13]: 0.36 log units
- Kd [14]: 0.07 nM

Substance: D3H44 Fab heterodimer H1L1 of LCCA Set # 9885 and 9886 (H1 S186R; L1 Q124E_S176L_T180E)
- Kd [15]: 0.18 nM
- Change in median values of KD compared to wild type (-(log(KD design)-log(KD wt))) [16]: -0.06 log

Substance: D3H44 Fab heterodimer, H1 Q39E_L143E_K145T_H172R_Q179E / L1 Q38R_Q124R_Q160K_T178R (H1L1 Fab of LCCA set 9819)
- Kd [1]: 0.15 nM
- Change in median values of KD of h1l1 Fab heterodimer compared to wild type (-(log(KD design)-log(KD wt))) [2]: 0.03

Substance: D3H44 Fab heavy chain L124E_K145M_Q179E
- H1L1:H1L2 normalized median ratio [12]: 6 parts of 100
- H1L1:H1L2 normalized median ratio [21]: 6 parts of 100

Substance: D3H44 Fab heavy chain S186R with C-terminal ABD2-His6 tag
- H2L2:H2L1 normalized median ratio [22]: 18%
- H2L2:H2L1 normalized median ratio [23]: 18%
- H2L2:H2L1 normalized median ratio [24]: 96%
- H2L2:H2L1 normalized median ratio [25]: 7%
- H2L2:H2L1 normalized median ratio [26]: 2%
- H2L2:H2L1 normalized median ratio [27]: 3%
- H2L2:H2L1 normalized median ratio [28]: 4%
- H2L2:H2L1 normalized median ratio [29]: 4%
- H2L2:H2L1 normalized median ratio [30]: 98%
- H2L2:H2L1 normalized median ratio [31]: 96%
- H2L2:H2L1 normalized median ratio [32]: 96%
- H2L2:H2L1 normalized median ratio [33]: 93%
- H2L2:H2L1 normalized median ratio [34]: 97%
- H2L2:H2L1 normalized median ratio [35]: 4%
- H2L2:H2L1 normalized median ratio [36]: 82%
- H2L2:H2L1 normalized median ratio [37]: 82%
